Molecular target: Fc-gamma receptor I (CD64) (UniProt P12314 16-374)
Test: cell-based or functional assay

Sequence of Fc-gamma receptor I (CD64) (P12314 16-374 limits assumed, form in doubt): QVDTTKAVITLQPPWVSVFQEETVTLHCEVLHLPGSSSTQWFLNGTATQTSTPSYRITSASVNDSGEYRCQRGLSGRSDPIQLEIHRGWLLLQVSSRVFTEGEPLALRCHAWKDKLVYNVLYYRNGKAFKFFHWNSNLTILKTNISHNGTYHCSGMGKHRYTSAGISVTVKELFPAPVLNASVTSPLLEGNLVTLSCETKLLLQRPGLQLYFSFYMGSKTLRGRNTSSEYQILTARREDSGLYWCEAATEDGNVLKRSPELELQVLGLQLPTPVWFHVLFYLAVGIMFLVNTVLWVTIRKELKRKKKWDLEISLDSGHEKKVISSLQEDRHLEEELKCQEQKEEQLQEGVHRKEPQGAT

B1: IgG1 LN01 antibody (antibody, V domains shown)
VH: EVQLVESGPGLVQPWGTLSLTCRVSGDSVSNDNYYWAWIRQTPGRELQVIGTIYYSGTTYYNPSLRNRVTISLDKSVNVVSLRLGSVSAADTAQYYCVRMPSHGFWSTSFSYWYFDLWGRGHFVAVSW
VL: DIQMTQSPSSLSASVGDKVTITCRASQSVTKYLNWYQFKTGQAPRILIYGTYTLLSGVSPRFSGAGSGSLYTLTITNIQPEDFATYYCQQAHSTPWTFGQGTHVAAN
For B1, the “neutralizing activity on TZM-bl cells expressing Fc-gamma receptor I against parental TZM-bl cells” value was 100 fold.
